# Measured values published in the supplement of paper PMC10724198.
# ± gives the standard deviation of the averaged measurements.
# Test system: Saccharomyces cerevisiae
# Test: protein stability index of tFT-peptide fusion (C-terminal peptide) (PSI (0-1 scale)); higher = more stable (slower turnover)
# Conditions: genetic background: wild type; temperature: 30 C
# 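Note: PSI is a weighted mean of sequencing reads over stability bins, variants kept only with over 10 reads, mCherry proximal and sfGFP distal, peptide attached via GGGS linker.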
row,Sequence,protein stability index
1,RVLSQAGSYSLC,0.587 ± 0.019
2,GLCTSIFSVVFF,0.679 ± 0.092
3,GVGCGGGGSSCA,0.703 ± 0.11
4,KKKEKKNIHSKT,0.646 ± 0.029
5,TPSLLPSPPFPL,0.733 ± 0.02
6,GIGGYACHFYVW,0.673 ± 0.012
7,KKKTSKVIIREG,0.689 ± 0.0085
8,SLSIWSTSPPAA,0.691 ± 0.0086
9,DGCRLCRRFIFG,0.669 ± 0.013
10,KRDVRRLYRKRV,0.7052 ± 0.0068
11,CPSFTSVLPSVP,0.678 ± 0.036
12,HGLLLRDRPLPT,0.665 ± 0.024
13,PSSFIRFLLCCF,0.644 ± 0.04
14,LHHPPSPLRNPP,0.687 ± 0.059
15,CGWASSWHSGLH,0.6874 ± 0.00071
16,DVVPYLGYYFFC,0.578 ± 0.01
17,CVCPLPLDSPVS,0.629 ± 0.081
18,RVWEGGRGGDGC,0.676 ± 0.024
19,GGVGRAALRWYG,0.68 ± 0.03
20,PDCVLSDENDAG,0.658 ± 0.0076
21,GVWGGRGQGWYR,0.674 ± 0.0096
22,SIGACGEVTFGC,0.7083 ± 0.00078
23,GYDLSASRALLA,0.65 ± 0.019
24,WPLLLHLLHLLR,0.697 ± 0.12
25,PSPLPPVPPPPP,0.639 ± 0.095
26,PVLPPPAPSPPP,0.678 ± 0.042

row,Sequence,protein stability index
1,AGLCVSIGVGRG,0.652 ± 0.015
2,FPLPHPCPPPPP,0.694 ± 0.017
3,PPPPGPPPLPLP,0.764 ± 0.058
4,APSQPPTPPPIS,0.665 ± 0.03
5,LIHCVSTFRCGE,0.622 ± 0.026
6,ERRKGGEKGKKK,0.691 ± 0.047
7,PPPPPTRLPQNS,0.694 ± 0.062
8,GRVRYRGSRFLG,0.656 ± 0.013
9,LYPSFSHTPPPT,0.69 ± 0.056
10,LPAPPPLPPPHP,0.712 ± 0.065
11,IQNTERIKIQTK,0.6791 ± 0.0034
12,EQGLRRRVFFEV,0.644 ± 0.013
13,PYTPLLLSTLAP,0.6899 ± 0.0016
14,IVNNVKYKNRNR,0.715 ± 0.071
15,PPLPPPPPRLPA,0.636 ± 0.025
16,SPSRVSYFFFFS,0.641 ± 0.059
17,GFYAMWNSIFWF,0.743 ± 0.001
18,RPFVRDFGCAVW,0.711 ± 0.023
19,PRSLLSPPGSVD,0.704 ± 0.026
20,MWQSRSAYFGSN,0.692 ± 0.075
21,CFRPFSARVVVL,0.565 ± 0.016
22,RRKEQGNHSTMR,0.663 ± 0.013
23,KRLKRKSNLERE,0.69 ± 0.047
24,WSVGYLSVALYR,0.615 ± 0.014
25,RNSPLFLESPGS,0.723 ± 0.034
26,PFFLVSPEPLSI,0.666 ± 0.058

row,Sequence,protein stability index
1,IARYLGRYERNV,0.687 ± 0.042
2,AACGELLKYSLS,0.576 ± 0.011
3,RGILGAGGAGRG,0.744 ± 0.079
4,LPPASSPPLLTP,0.696 ± 0.083
5,AKEENQRKYTRR,0.637 ± 0.13
6,VFRCSGLFFRDG,0.6621 ± 0.0033
7,CLARPVFFSFIG,0.559 ± 0.029
8,VFCSLAWFGLLL,0.598 ± 0.054
9,APLLQCPILARP,0.588 ± 0.0067
10,PLPFLPPPPCPP,0.696 ± 0.036
11,KKEKKIRKKTVT,0.732 ± 0.028
12,FLGCFIPLPCTP,0.645 ± 0.012
13,PPPSPHRLDHLT,0.704 ± 0.016
14,KTKKIWKKKSNI,0.713 ± 0.011
15,GVGQEGVGGRAV,0.707 ± 0.03
16,AMGSGLVWAGPA,0.684 ± 0.03
17,IKGVEKDKKTQK,0.747 ± 0.045
18,PPRSIPLPSPFH,0.741 ± 0.016
19,IDDITMYRKKYR,0.66 ± 0.047
20,PPLPPQLVQDLL,0.72 ± 0.073
21,PLPPLFLPPPPL,0.708 ± 0.021
22,PPPTLSPPPPPL,0.75 ± 0.034
23,ALSVGGGSGSWY,0.736 ± 0.014
24,DFVLKQIARINL,0.648 ± 0.021
25,APSTFRPPTPPS,0.711 ± 0.03
26,ERKEPRIQQQTL,0.67 ± 0.075

row,Sequence,protein stability index
1,PSLARWLTLGYM,0.63 ± 0.013
2,TRYIRKSKTKGA,0.643 ± 0.014
3,PSPALPANQSFY,0.665 ± 0.019
4,PAPPPSPRILLL,0.542 ± 0.042
5,VSRKEQYPEAQE,0.625 ± 0.033
6,LAGVSSPLPPPP,0.685 ± 0.025
7,GGGGGGSTPALG,0.667 ± 0.028
8,PLPPTAPPHPPP,0.671 ± 0.096
9,SDVCVYVIRDIG,0.565 ± 0.068
10,PSADRQSMRCRR,0.631 ± 0.007
11,GGGWGLRVSCGT,0.656 ± 0.071
12,YVALSTGPLRTP,0.6828 ± 0.0065
13,PIVSISLGIGSS,0.6758 ± 0.001
14,GGCCLWVGFPGG,0.6957 ± 0.0051
15,PTIPLLPPPLPP,0.622 ± 0.022
16,RPGNIRNNKKKK,0.688 ± 0.021
17,RRLRGGTQAEGE,0.682 ± 0.068
18,AIPLYAPSQPCE,0.696 ± 0.027
19,PPPPLPPRPSPP,0.71 ± 0.074
20,TYSTDRPGLHTW,0.698 ± 0.074
21,PHGPPAHLRSRP,0.737 ± 0.015
22,STPLPPPTPLPA,0.723 ± 0.029
23,IDMGEQTGKMIN,0.72 ± 0.012
